Data as given in publication PMC9482650, “Quantitative fragmentomics allow affinity mapping of interactomes” (Nature Communications, 2022).

Biological target: T1, NHERF3_3, Q5T2W1
T1 sequence (Q5T2W1 238-333, limits assumed, looked up): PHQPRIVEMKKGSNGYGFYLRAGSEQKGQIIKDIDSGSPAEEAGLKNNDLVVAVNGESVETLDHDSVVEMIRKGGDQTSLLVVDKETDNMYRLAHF
Test: holdup assay
Parameters: key: below the threshold = too weak to quantify, mostly under pKd 3.1 to 4
Settings: plain residues with an end cap or a label only (N-terminal biotin on a linker: ado-ado)

Binder | pKd
SRPRPDDLEI [GJA1, P17302] | below the threshold
NVYGTESVKI [GRIA3, P42263] | below the threshold

Biological target: T2, LIN7A, O14910
T2 sequence (O14910 103-200, limits assumed, looked up): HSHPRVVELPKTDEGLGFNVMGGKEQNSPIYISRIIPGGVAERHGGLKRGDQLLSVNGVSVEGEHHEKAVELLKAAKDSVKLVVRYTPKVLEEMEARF
Test: holdup assay
Parameters: key: below the threshold = too weak to quantify, mostly under pKd 3.1 to 4
Settings: plain residues with an end cap or a label only (N-terminal biotin on a linker: ado-ado)

Binder | pKd
SRPRPDDLEI [GJA1, P17302] | below the threshold
NVYGTESVKI [GRIA3, P42263] | below the threshold

Biological target: Inadl_9, Q8NI35
Sequence (Q8NI35 1530-1615): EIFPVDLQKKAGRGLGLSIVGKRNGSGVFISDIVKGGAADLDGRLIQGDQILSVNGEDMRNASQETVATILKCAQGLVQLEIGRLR
Test: holdup assay
Parameters: key: below the threshold = too weak to quantify, mostly under pKd 3.1 to 4
Settings: plain residues with an end cap or a label only (N-terminal biotin on a linker: ado-ado)

Binder | pKd
SRPRPDDLEI [GJA1, P17302] | below the threshold
NVYGTESVKI [GRIA3, P42263] | below the threshold

Biological target: FRMPD2_2, Q68DX3
Sequence (Q68DX3 944-1038): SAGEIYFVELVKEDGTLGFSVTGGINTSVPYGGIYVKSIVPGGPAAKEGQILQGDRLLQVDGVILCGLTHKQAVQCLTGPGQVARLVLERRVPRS
Test: holdup assay
Parameters: key: below the threshold = too weak to quantify, mostly under pKd 3.1 to 4
Settings: plain residues with an end cap or a label only (N-terminal biotin on a linker: ado-ado)

Binder | pKd
SRPRPDDLEI [GJA1, P17302] | below the threshold
NVYGTESVKI [GRIA3, P42263] | below the threshold

Biological target: T3, DLG3_1, Q92796
T3 sequence (Q92796 125-227, limits assumed, looked up): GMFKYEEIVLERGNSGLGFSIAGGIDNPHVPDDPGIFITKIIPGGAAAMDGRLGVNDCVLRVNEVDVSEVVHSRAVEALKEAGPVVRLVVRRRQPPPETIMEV
Test: holdup assay
Parameters: key: below the threshold = too weak to quantify, mostly under pKd 3.1 to 4
Settings: plain residues with an end cap or a label only (N-terminal biotin on a linker: ado-ado)

Binder | pKd
SRPRPDDLEI [GJA1, P17302] | below the threshold
NVYGTESVKI [GRIA3, P42263] | below the threshold

Biological target: GORASP2, Q9H8Y8
Test: holdup assay
Parameters: key: below the threshold = too weak to quantify, mostly under pKd 3.1 to 4
Settings: plain residues with an end cap or a label only (N-terminal biotin on a linker: ado-ado)

Binder | pKd
SRPRPDDLEI [GJA1, P17302] | below the threshold
NVYGTESVKI [GRIA3, P42263] | 3.51

Biological target: Inadl_3, Q8NI35
Sequence (Q8NI35 359-469): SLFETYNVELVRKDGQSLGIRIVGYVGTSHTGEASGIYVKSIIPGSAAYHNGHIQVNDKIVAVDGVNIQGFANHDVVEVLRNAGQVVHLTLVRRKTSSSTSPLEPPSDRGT
Test: holdup assay
Parameters: key: below the threshold = too weak to quantify, mostly under pKd 3.1 to 4
Settings: plain residues with an end cap or a label only (N-terminal biotin on a linker: ado-ado)

Binder | pKd
SRPRPDDLEI [GJA1, P17302] | 3.47
NVYGTESVKI [GRIA3, P42263] | below the threshold

Biological target: AHNAK1, Q09666
Sequence (Q09666 4-100): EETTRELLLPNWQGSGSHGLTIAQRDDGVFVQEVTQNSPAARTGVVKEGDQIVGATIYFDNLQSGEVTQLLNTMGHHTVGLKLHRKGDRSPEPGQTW
Test: holdup assay
Parameters: key: below the threshold = too weak to quantify, mostly under pKd 3.1 to 4
Settings: plain residues with an end cap or a label only (N-terminal biotin on a linker: ado-ado)

Binder | pKd
SRPRPDDLEI [GJA1, P17302] | below the threshold
NVYGTESVKI [GRIA3, P42263] | below the threshold

Biological target: DLG1_3, Q12959
Sequence (Q12959 457-571): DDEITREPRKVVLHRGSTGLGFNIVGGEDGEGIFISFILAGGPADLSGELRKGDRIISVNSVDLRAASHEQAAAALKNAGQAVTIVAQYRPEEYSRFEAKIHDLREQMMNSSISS
Test: holdup assay
Parameters: key: below the threshold = too weak to quantify, mostly under pKd 3.1 to 4
Settings: plain residues with an end cap or a label only (N-terminal biotin on a linker: ado-ado)

Binder | pKd
SRPRPDDLEI [GJA1, P17302] | below the threshold
NVYGTESVKI [GRIA3, P42263] | below the threshold

Biological target: LNX1_2, Q8TBB1
Sequence (Q8TBB1 371-470): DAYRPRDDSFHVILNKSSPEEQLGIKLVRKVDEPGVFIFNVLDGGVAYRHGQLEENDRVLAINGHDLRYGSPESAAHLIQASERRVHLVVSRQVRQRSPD
Test: holdup assay
Parameters: key: below the threshold = too weak to quantify, mostly under pKd 3.1 to 4
Settings: plain residues with an end cap or a label only (N-terminal biotin on a linker: ado-ado)

Binder | pKd
SRPRPDDLEI [GJA1, P17302] | below the threshold
NVYGTESVKI [GRIA3, P42263] | below the threshold

Biological target: MAGI2_4, Q86UL8
Sequence (Q86UL8 772-865): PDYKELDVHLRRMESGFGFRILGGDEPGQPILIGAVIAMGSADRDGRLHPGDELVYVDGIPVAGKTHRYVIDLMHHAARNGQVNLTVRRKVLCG
Test: holdup assay
Parameters: key: below the threshold = too weak to quantify, mostly under pKd 3.1 to 4
Settings: plain residues with an end cap or a label only (N-terminal biotin on a linker: ado-ado)

Binder | pKd
SRPRPDDLEI [GJA1, P17302] | below the threshold
NVYGTESVKI [GRIA3, P42263] | below the threshold

Biological target: T4, SNTG2, Q9NY99
T4 sequence (Q9NY99 68-166, limits assumed, looked up): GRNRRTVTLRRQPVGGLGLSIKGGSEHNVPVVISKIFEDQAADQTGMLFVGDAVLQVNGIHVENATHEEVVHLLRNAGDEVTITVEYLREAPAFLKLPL
Test: holdup assay
Parameters: key: below the threshold = too weak to quantify, mostly under pKd 3.1 to 4
Settings: plain residues with an end cap or a label only (N-terminal biotin on a linker: ado-ado)

Binder | pKd
SRPRPDDLEI [GJA1, P17302] | below the threshold
NVYGTESVKI [GRIA3, P42263] | below the threshold

Biological target: Inadl_10, Q8NI35
Sequence (Q8NI35 1673-1763): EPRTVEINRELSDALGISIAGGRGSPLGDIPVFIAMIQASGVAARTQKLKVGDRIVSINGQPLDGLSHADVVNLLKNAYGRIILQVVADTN
Test: holdup assay
Parameters: key: below the threshold = too weak to quantify, mostly under pKd 3.1 to 4
Settings: plain residues with an end cap or a label only (N-terminal biotin on a linker: ado-ado)

Binder | pKd
SRPRPDDLEI [GJA1, P17302] | below the threshold
NVYGTESVKI [GRIA3, P42263] | below the threshold

Biological target: TJP1_3, Q07157
Sequence (Q07157 416-512): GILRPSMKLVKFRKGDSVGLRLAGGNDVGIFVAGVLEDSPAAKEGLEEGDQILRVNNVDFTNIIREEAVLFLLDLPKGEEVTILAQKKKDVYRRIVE
Test: holdup assay
Parameters: key: below the threshold = too weak to quantify, mostly under pKd 3.1 to 4
Settings: plain residues with an end cap or a label only (N-terminal biotin on a linker: ado-ado)

Binder | pKd
SRPRPDDLEI [GJA1, P17302] | below the threshold
NVYGTESVKI [GRIA3, P42263] | below the threshold

Biological target: FRMPD2_3, Q68DX3
Sequence (Q68DX3 1073-1166): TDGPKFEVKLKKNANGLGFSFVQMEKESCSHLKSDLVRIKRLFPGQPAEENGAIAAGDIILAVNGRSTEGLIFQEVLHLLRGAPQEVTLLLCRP
Test: holdup assay
Parameters: key: below the threshold = too weak to quantify, mostly under pKd 3.1 to 4
Settings: plain residues with an end cap or a label only (N-terminal biotin on a linker: ado-ado)

Binder | pKd
SRPRPDDLEI [GJA1, P17302] | below the threshold
NVYGTESVKI [GRIA3, P42263] | below the threshold

Biological target: T5, RHPN1, Q8TCX5
T5 sequence (Q8TCX5 508-602, limits assumed, looked up): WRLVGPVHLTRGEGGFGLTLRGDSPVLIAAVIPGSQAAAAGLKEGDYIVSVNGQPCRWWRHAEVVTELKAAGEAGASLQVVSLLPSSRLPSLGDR
Test: holdup assay
Parameters: key: below the threshold = too weak to quantify, mostly under pKd 3.1 to 4
Settings: plain residues with an end cap or a label only (N-terminal biotin on a linker: ado-ado)

Binder | pKd
SRPRPDDLEI [GJA1, P17302] | below the threshold
NVYGTESVKI [GRIA3, P42263] | below the threshold

Biological target: T6, SNTG1, Q9NSN8
T6 sequence (Q9NSN8 52-150, limits assumed, looked up): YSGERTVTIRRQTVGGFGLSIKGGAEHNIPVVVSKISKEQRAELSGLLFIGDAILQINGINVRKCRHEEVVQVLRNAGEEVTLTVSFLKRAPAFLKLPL
Test: holdup assay
Parameters: key: below the threshold = too weak to quantify, mostly under pKd 3.1 to 4
Settings: plain residues with an end cap or a label only (N-terminal biotin on a linker: ado-ado)

Binder | pKd
SRPRPDDLEI [GJA1, P17302] | below the threshold
NVYGTESVKI [GRIA3, P42263] | below the threshold

Biological target: T7, MPDZ_5, O75970
T7 sequence (O75970 695-796, limits assumed, looked up): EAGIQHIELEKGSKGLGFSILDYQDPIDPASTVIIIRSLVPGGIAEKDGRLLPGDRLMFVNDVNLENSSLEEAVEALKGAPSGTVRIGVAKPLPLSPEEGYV
Test: holdup assay
Parameters: key: below the threshold = too weak to quantify, mostly under pKd 3.1 to 4
Settings: plain residues with an end cap or a label only (N-terminal biotin on a linker: ado-ado)

Binder | pKd
SRPRPDDLEI [GJA1, P17302] | below the threshold
NVYGTESVKI [GRIA3, P42263] | below the threshold

Biological target: PTPN3, P26045
Sequence (P26045 505-587): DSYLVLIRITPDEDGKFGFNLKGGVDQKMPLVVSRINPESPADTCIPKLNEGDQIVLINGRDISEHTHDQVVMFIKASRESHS
Test: holdup assay
Parameters: key: below the threshold = too weak to quantify, mostly under pKd 3.1 to 4
Settings: plain residues with an end cap or a label only (N-terminal biotin on a linker: ado-ado)

Binder | pKd
SRPRPDDLEI [GJA1, P17302] | below the threshold
NVYGTESVKI [GRIA3, P42263] | below the threshold

Biological target: MAGI1_2, Q96QZ7
Sequence (Q96QZ7 456-580): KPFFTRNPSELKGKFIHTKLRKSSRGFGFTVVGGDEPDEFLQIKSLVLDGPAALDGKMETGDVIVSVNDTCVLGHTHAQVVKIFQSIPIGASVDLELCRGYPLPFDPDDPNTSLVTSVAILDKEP
Test: holdup assay
Parameters: key: below the threshold = too weak to quantify, mostly under pKd 3.1 to 4
Settings: plain residues with an end cap or a label only (N-terminal biotin on a linker: ado-ado)

Binder | pKd
SRPRPDDLEI [GJA1, P17302] | below the threshold
NVYGTESVKI [GRIA3, P42263] | below the threshold

Biological target: T8, DLG3_2, Q92796
T8 sequence (Q92796 221-321, limits assumed, looked up): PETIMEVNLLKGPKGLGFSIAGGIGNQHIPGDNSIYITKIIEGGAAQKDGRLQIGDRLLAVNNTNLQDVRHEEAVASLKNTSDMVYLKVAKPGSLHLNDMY
Test: holdup assay
Parameters: key: below the threshold = too weak to quantify, mostly under pKd 3.1 to 4
Settings: plain residues with an end cap or a label only (N-terminal biotin on a linker: ado-ado)

Binder | pKd
SRPRPDDLEI [GJA1, P17302] | below the threshold
NVYGTESVKI [GRIA3, P42263] | below the threshold

Biological target: NHERF4_1, Q86UT5-2
Sequence (Q86UT5 other isoform, or with tags, fused parts or gaps): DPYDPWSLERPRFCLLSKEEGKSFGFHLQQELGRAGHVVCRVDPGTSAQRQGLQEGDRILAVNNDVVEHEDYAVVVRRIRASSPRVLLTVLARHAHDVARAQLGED
Test: holdup assay
Parameters: key: below the threshold = too weak to quantify, mostly under pKd 3.1 to 4
Settings: plain residues with an end cap or a label only (N-terminal biotin on a linker: ado-ado)

Binder | pKd
SRPRPDDLEI [GJA1, P17302] | below the threshold
NVYGTESVKI [GRIA3, P42263] | 3.57

Biological target: T9, RADIL, Q96JH8
T9 sequence (Q96JH8 971-1071, limits assumed, looked up): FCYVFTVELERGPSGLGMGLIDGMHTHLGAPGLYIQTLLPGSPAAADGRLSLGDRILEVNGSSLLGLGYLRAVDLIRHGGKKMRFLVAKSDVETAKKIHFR
Test: holdup assay
Parameters: key: below the threshold = too weak to quantify, mostly under pKd 3.1 to 4
Settings: plain residues with an end cap or a label only (N-terminal biotin on a linker: ado-ado)

Binder | pKd
SRPRPDDLEI [GJA1, P17302] | below the threshold
NVYGTESVKI [GRIA3, P42263] | below the threshold

Biological target: T10, PTPN13_1, Q12923
T10 sequence (Q12923 1088-1188, limits assumed, looked up): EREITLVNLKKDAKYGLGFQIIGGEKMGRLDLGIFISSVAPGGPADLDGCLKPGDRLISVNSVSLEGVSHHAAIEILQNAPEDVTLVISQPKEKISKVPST
Test: holdup assay
Parameters: key: below the threshold = too weak to quantify, mostly under pKd 3.1 to 4
Settings: plain residues with an end cap or a label only (N-terminal biotin on a linker: ado-ado)

Binder | pKd
SRPRPDDLEI [GJA1, P17302] | below the threshold
NVYGTESVKI [GRIA3, P42263] | below the threshold

Biological target: T11, DFNB31_1, Q9P202
T11 sequence (Q9P202 135-233, limits assumed, looked up): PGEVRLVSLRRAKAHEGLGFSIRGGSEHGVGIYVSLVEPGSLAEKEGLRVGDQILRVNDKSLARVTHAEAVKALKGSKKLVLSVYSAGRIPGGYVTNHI
Test: holdup assay
Parameters: key: below the threshold = too weak to quantify, mostly under pKd 3.1 to 4
Settings: plain residues with an end cap or a label only (N-terminal biotin on a linker: ado-ado)

Binder | pKd
SRPRPDDLEI [GJA1, P17302] | below the threshold
NVYGTESVKI [GRIA3, P42263] | below the threshold

Biological target: LIMK2, P53671
Sequence (P53671 143-248): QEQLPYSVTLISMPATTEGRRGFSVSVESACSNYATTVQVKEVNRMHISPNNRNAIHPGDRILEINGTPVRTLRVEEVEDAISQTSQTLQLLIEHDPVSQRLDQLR
Test: holdup assay
Parameters: key: below the threshold = too weak to quantify, mostly under pKd 3.1 to 4
Settings: plain residues with an end cap or a label only (N-terminal biotin on a linker: ado-ado)

Binder | pKd
SRPRPDDLEI [GJA1, P17302] | below the threshold
NVYGTESVKI [GRIA3, P42263] | below the threshold

Biological target: SCRIB_2, Q14160
Sequence (Q14160 857-960): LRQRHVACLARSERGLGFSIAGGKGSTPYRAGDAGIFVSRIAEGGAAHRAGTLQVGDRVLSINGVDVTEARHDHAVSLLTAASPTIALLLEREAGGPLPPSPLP
Test: holdup assay
Parameters: key: below the threshold = too weak to quantify, mostly under pKd 3.1 to 4
Settings: plain residues with an end cap or a label only (N-terminal biotin on a linker: ado-ado)

Binder | pKd
SRPRPDDLEI [GJA1, P17302] | below the threshold
NVYGTESVKI [GRIA3, P42263] | below the threshold
